Results taken from patent US20230348614A1 (VISTERRA, published 2023).
Primed or numbered codes have the meaning given here. The star is where a group is joined. dPEG8″ = dPEG8: discrete polyethylene glycol-8 linker (between N-terminal biotin and the peptide); dPEG8 = discrete polyethylene glycol-8 linker (long chain); Biotin = O=C1N[C@H]2[C@H](CS[C@H]2CCCCC(=O)*)N1

How the values were obtained:
[1] = target: T1, Recombinant soluble human CD138 extracellular domain (analyte in SPR) (human, UniProt P18827 23-254); test: SPR (Carterra LSA): antibody captured by anti-human IgG, CD138 as analyte, pH 7.4, 1:1 fit
T1 construct: extracellular domain; also called recombinant CD138 (the antigen)
T1 sequence (looked up): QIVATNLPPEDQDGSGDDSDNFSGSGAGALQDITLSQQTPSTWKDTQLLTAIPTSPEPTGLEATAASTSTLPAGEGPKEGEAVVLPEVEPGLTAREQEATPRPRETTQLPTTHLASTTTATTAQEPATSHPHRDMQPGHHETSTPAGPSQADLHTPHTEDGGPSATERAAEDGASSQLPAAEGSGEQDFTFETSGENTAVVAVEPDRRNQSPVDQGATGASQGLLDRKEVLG
Description: This method as described, immobilizes the target (recombinant CD138) through biotinylation-streptavidin capture. Such a method may, in principle, lead to biases in binding due to either chemical modification of the capture ligand and/or avidity effects due to immobilization of this ligand on the biosensor. Moreover, this method depends on diffusion-based principles of dissociation leading to non-equilibrium binding states. Surface plasmon resonance is an orthogonal, commonly used method for determining binding kinetics and deriving affinity values based on these parameters. In this method, antibodies were directly coupled to the sensor chip and probed with several concentrations of recombinant CD138 (the antigen) varying from 100 nM to 41 nM. This evaluation was completed under two different pH conditions, i.e., pH 6.0 and pH […].
Antibody-CD138 binding was evaluated on a Carterra LSA high throughput SPR instrument. Binding experiments were carried out using binding buffer comprising 100 mM sodium phosphate, 150 mM NaCl and 0.05% Tween-20 buffer. Buffers were adjusted to target pH of 7.4 and 6.0, by use of sodium hydroxide or HCL, respectively. All steps were also carried out independently at these respective buffer pHs. Antibodies were captured on the SPR (CMDP) chip using an anti-human IgG covalently coupled to the CMDP chip based on standard protocols, as described by the instrument manufacturer, and to create a uniform lawn on the chip surface at a target 25 nM anti-CD138 antibody concentration. Binding to CD138 was achieved by uniformly passing binding analyte with increasing concentrations of CD138 (41 nM-100 nM) for 15 minutes and allowing dissociation for 20 minutes. Analyte was flowed over the chip at a rate of 2 milliliters/minute. Raw binding data were processed using kinetics data analysis software also provided by the manufacturer (Carterra) following as 2X background subtraction that used the first six injections of buffer blanks and the internal machine reference controls. Kinetic data was analysed using a global fit and assuming a 1:1 binding interaction. Further analysis of individual binding curves (sensorgrams) with best fits were used to refine the calculation of kinetic parameters.

Peptide 2D = target: T2, Peptide 2D (human); test: BLI (Octet): biotinylated peptide (50 nM) on streptavidin sensors, mAb 4320 in solution, PBS pH 7.4; qualitative score
T2 construct: Chemically synthesized human CD138 peptide, 15 residues
T2 peptide: {Biotin-dPEG8″}-GEAVVLPEVEPGLTA-OH

Peptide 2A = target: T3, Peptide 2A (human, N-terminal biotin through a long chain (dPEG8) linker (Biot-LC-); C-terminal -OH); test: BLI (Octet): biotinylated peptide (50 nM) loaded on streptavidin SA biosensors, mAb 4320 in solution, 300 s association then dissociation, PBS pH 7.4 with 0.02% Tween-20
T3 construct: Chemically synthesized human CD138 peptide, 34 residues; also called Pep2a
T3 peptide: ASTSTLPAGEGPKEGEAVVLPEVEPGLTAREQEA

Peptide 6B = target: T4, Peptide 6B (human, N-terminal biotin through a long chain (dPEG8) linker (Biot-LC-); C-terminal -OH); test: as above
T4 construct: Chemically synthesized human CD138 peptide, 33 residues
T4 peptide: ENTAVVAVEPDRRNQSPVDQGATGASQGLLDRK

Peptide 6 = target: T5, Peptide 6 (human, N-terminal biotin through a long chain (dPEG8) linker (Biot-LC-); C-terminal -OH); test: as above
T5 construct: Chemically synthesized human CD138 peptide, 41 residues; also called Pep6
T5 peptide: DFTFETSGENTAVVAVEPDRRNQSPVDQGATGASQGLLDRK

Peptide 2C = target: T6, Peptide 2C (human, N-terminal biotin through a long chain (dPEG8) linker (Biot-LC-); C-terminal -OH); test: as above
T6 construct: Chemically synthesized human CD138 peptide, 20 residues
T6 peptide: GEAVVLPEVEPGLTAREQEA

Peptide 138-6-1 = target: T7, Peptide 138-6-1 (human); test: as above
T7 construct: Chemically synthesized human CD138 peptide, 8 residues
T7 peptide: {Biotin-dPEG8}-VVAVEPDR-OH

Peptide 6F = target: T8, Peptide 6F (human); test: as above
T8 construct: Chemically synthesized human CD138 peptide, 15 residues
T8 peptide: {Biotin-dPEG8″}-ENTAVVAVEPDRRNQ-OH

Peptide 138-2-2 = target: T9, Peptide 138-2-2 (human); test: BLI (Octet): biotinylated peptide (50 nM) loaded on streptavidin SA biosensors, mAb 4320 in solution, PBS pH 7.4 with 0.02% Tween-20
T9 construct: Chemically synthesized human CD138 peptide, 7 residues
T9 peptide: {Biotin-dPEG8}-LPEVEPG-OH

Peptide 138-2-1 = target: T10, Peptide 138-2-1 (human); test: as above
T10 construct: Chemically synthesized human CD138 peptide, 8 residues
T10 peptide: {Biotin-dPEG8}-VLPEVEPG-OH

Peptide 138-2-3 = target: T11, Peptide 138-2-3 (human); test: as above
T11 construct: Chemically synthesized human CD138 peptide, 8 residues
T11 peptide: {Biotin-dPEG8}-PEVEPGLT-OH

Kd [1]: 0.2 nM
koff [1]: 8.5e-05 s⁻¹
kon [1]: 370000 M⁻¹ s⁻¹
binding result (Peptide 2D): binds
binding result (Peptide 2A): binds
binding result (Peptide 6B): binds
binding result (Peptide 6): binds
binding result (Peptide 2C): binds
binding result (Peptide 138-6-1): binds
binding result (Peptide 6F): binds
binding result (Peptide 138-2-2): no binding
binding result (Peptide 138-2-1): no binding
binding result (Peptide 138-2-3): no binding
B1: mAb 4320 (parental humanized anti-CD138 antibody) (antibody, human IgG1, kappa, V domains shown)
VH: QVQLVQSGAEVKKPGASVKVSCKASGYSFSSYYMHWVRQAPGQGLEWMGTIHPSDSTTNYNQKFQGRVTMTVDTSTRTAYMELSSLRSEDTAVYYCANFVYWGQGTTVTVSS
VL: DIVMTQTPLSLSVTPGQPASISCKSSKSLLYKDGKTYLNWFLQKPGQSPQLLIYVVSTRASGVPDRFSGSGSGTDFTLKISRVEAEDVGVYYCQQLVEYPYTFGQGTKLEIKR
notes: Full-length IgG; heavy constant region human gamma 1 (m3 allotype), light chain kappa constant*01
